Positions count from the first letter of the chain named. No end group written: not given here.

To fix the notation:
T1: DREB2A_(151-335) (Arabidopsis thaliana, UniProt O82132 151-335)
T1 construct: also called C-terminal intrinsically disordered region (IDR) of DREB2A; source: E. coli BL21 DE3, purified (glutathione Sepharose, TEV cleavage, SEC); not shown: GST, N-terminal, cleaved
T1 sequence (looked up): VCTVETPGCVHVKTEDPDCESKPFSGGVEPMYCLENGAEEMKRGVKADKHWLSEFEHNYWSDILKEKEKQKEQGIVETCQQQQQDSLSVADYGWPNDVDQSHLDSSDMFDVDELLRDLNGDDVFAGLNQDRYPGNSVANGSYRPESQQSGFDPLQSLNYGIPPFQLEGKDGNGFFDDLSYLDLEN

T2: Med25-ACID_(532-680), activator interaction domain (ACID) of mediator complex subunit 25 (Arabidopsis thaliana, UniProt Q7XYY2 532-680)
T2 chain: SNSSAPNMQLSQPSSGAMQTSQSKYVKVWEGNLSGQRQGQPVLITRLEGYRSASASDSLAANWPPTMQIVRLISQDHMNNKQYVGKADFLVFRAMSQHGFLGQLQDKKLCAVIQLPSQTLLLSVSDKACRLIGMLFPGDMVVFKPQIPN

T3: Med25-ACID R568A (Arabidopsis thaliana, UniProt Q7XYY2 532-680, R568A)
T3 construct: Mediator complex subunit 25 (Med25), Arabidopsis thaliana, AT1G25540, ACID domain construct with Arg568 in loop L1 replaced by alanine; the only Med25-ACID construct described is 532-680; source: E. coli BL21 DE3, purified (glutathione Sepharose, TEV cleavage, cation exchange, SEC); not shown: GST, N-terminal, cleaved
T3 sequence (looked up): T2 chain with R37A

B1: Med25-ACID_(532-680), activator interaction domain (ACID) of mediator complex subunit 25 (domain or fragment, Arabidopsis thaliana, UniProt Q7XYY2 532-680, looked up)
chain: T2 chain
notes: 15N- or 13C,15N-labelled in the NMR titrations; unlabelled in ITC, CEST and stopped-flow; also called AtMed25-ACID; ACID domain; source: E. coli BL21 DE3, purified (glutathione Sepharose, TEV cleavage, cation exchange, SEC); not shown: GST, N-terminal, cleaved
B2: FITC-DREB2A_(234-256) synthetic peptide (peptide, UniProt O82132 234-256, looked up)
peptide: QDSLSVADYGWPNDVDQSHLDSS
modifications: also: FITC label, position not given here
notes: DREB2A, Arabidopsis thaliana, AT5G05410, residues 234-256; also called FITC-labeled ABS; source: synthetic peptide, bought: TAG Copenhagen A/S
B3: DREB2A_(234-276) (ABS-RIM) (domain or fragment, Arabidopsis thaliana, UniProt O82132 234-276, looked up)
chain: QDSLSVADYGWPNDVDQSHLDSSDMFDVDELLRDLNGDDVFAG
notes: 13C,15N-labelled in the CEST experiments; Populates cis (30 ± 1%) and trans Trp244-Pro245 isomers in the free state; also called bivalent ABS-RIM fragment; source: E. coli BL21 DE3, purified (glutathione Sepharose, TEV cleavage, SEC); not shown: GST, N-terminal, cleaved
B4: FITC-DREB2A_(234-276) (domain or fragment)
chain: B3 chain
modifications: also: FITC label, position not given here

The target in one assay is T4, RCD1-RST (Arabidopsis thaliana, UniProt Q8RY59).
T4 construct: RCD1-RST
T4 sequence (Q8RY59 499-572): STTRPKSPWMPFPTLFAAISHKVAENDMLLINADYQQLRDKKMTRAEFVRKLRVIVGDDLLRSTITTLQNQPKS
Conditions: cited from earlier work. The text has this:
However, alternative splicing of DREB2A will shortcut such regulatory fine-tuning of competition by removing the RIM, thereby eliminating RCD1 as a repressor while leaving AD2 available (Fig. 7B). This provides an obvious mechanism for functional switching in a transcriptional pathway.

For the next assay, the target named is T5, Med25-ACID (Arabidopsis thaliana, UniProt Q7XYY2).
T5 construct: Med25-ACID532-680 (AT1G25540), expressed in E. coli with N-terminal GST tag removed by TEV protease
The settings on record: SD. Here is the method: All protein fragments were produced with an N-terminal Glutathione-S-transferase (GST) tag which was removed using Tobacco Etch Virus (TEV) protease and expressed from E.coli BL21 DE3 cells. DREB2A (AT5G05410) variants were expressed at 37 °C for three hours. The DREB2A splice variant (AT5G05410.2) was based on GenBank ID CD530293[21]. Due to stability and aggregation considerations, Med25-ACID (AT1G25540) was expressed with additional N-terminal residues. Expression of Med25-ACID532-680 was induced at high OD (0.8-1.0) and cultured overnight at 18 °C. Cells were resuspended in 20 mM Tris-HCl pH 8.0, 100 mM NaCl lysis buffer and sonicated. The lysate was incubated with glutathione Sepharose for one hour and washed using the lysis buffer. Aliquots of 5 mL resin were resuspended in 20 mL of lysis buffer with 5 mM dithiothreitol (DTT) and 1 mM EDTA and the protein was cleaved overnight at 4 °C using TEV protease. For DREB2A, cleaved protein was freeze-dried and buffer-changed to experimental buffer using size exclusion chromatography. Med25-ACID was further purified using cation exchange (Source 15 S) at pH 8.5 and the buffer was changed using size exclusion chromatography (Superdex S75 10/300 GL). Isotope-labeled proteins were produced by growing the initial culture in lysogenic broth and transferring to half volume M9 minimal media 30 min before induction.
(§1) ITC was performed on either a MicroCal ITC200 or a Malvern Pananalytical PEAQ-ITC. All ITC experiments were performed using a 50 mM HEPES pH 7.4, 100 mM NaCl and 0.5 mM tris(2-carboxyethyl)phosphine (TCEP) buffer. All experiments were performed using a ~ 1:10 cell to syringe protein concentration ratio. For high-affinity DREB2A fragments, the cell concentration was around 15 µM, while lower-affinity interaction experiments used higher concentrations. Samples were degassed by centrifuging at 20,000 x g for 20 minutes at experimental temperature. For three DREB2A fragments, experiments were performed over a range of temperatures to determine the ΔCp. Reported thermodynamic parameters are given at 25 °C. Data were analyzed using Origin and inhouse scripts using the one-set-of-sites model as documented by MicroCal and Origin. Dilution heats were fitted using an offset parameter. Most experiments were performed using a 0.5 µl initial injection, which was discarded in the analysis, followed by 18 injections of 2.0 µl.

The target of assay [1] is T6, Med25-ACID R568A (Arabidopsis thaliana, UniProt Q7XYY2, R568A).
T6 construct: Med25-ACID532-680 R568A, N-terminal GST tag removed by TEV protease
T6 sequence (Q7XYY2 532-680 R568A): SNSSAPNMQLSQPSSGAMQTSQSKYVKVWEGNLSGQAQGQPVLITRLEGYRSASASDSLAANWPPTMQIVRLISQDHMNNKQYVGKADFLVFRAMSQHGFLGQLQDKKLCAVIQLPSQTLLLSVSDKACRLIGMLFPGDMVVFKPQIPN
The settings on record: SD, n = 2. The protocol:
To validate the proposed binding groove, we introduced an alanine in L1, replacing Arg568, which experienced a large CSP upon DREB2A binding, and determined the binding affinity using ITC with the high-affinity ABS-RIM fragment (DREB2A234-276, Fig. 1A). […] Thus, both NMR and thermodynamics supported the importance of the groove for the interaction with DREB2A.
as §1, with “µl. […]” for “µl.”

For the next assay, the target named is T1, DREB2A_(151-335). Put plainly: ITC; 25 °C; 50 mM HEPES pH 7.4, 100 mM NaCl, 0.5 mM TCEP; ~1:10 cell to syringe concentration ratio, cell around 15 µM for high-affinity fragments; one-set-of-sites model; which protein was in the cell is not stated. Conditions: both partners purified. Background: In ITC the heat of successive injections is recorded.
For assay [2], the target named is T2, Med25-ACID_(532-680), activator …. Put plainly: stopped-flow, 10 °C.
Assay [3] has the same target. Put plainly: stopped-flow, 10 °C.
Assay [4] deals with B1. Kind of assay: stopped-flow fluorescence; FITC-DREB2A (50 nM 234-276 or 250 nM 234-256) mixed with increasing Med25-ACID(532-680), pseudo-first-order; dissociation by competitive displacement with unlabeled DREB2A; 50 mM HEPES pH 7.4, 100 mM NaCl, 1 mM DTT; Fig. 7 legend gives kinetic rate constants at 10 °C. Conditions: both partners purified.
Assay [5] deals with T2, Med25-ACID_(532-680), activator …. Kind of assay: NMR; cis proline isomer, 10 °C.
The target is the same in assay [6]. Put plainly: cis proline isomer, 10 °C.
The target is the same in assay [7]. Put plainly: NMR; trans proline isomer, 10 °C.
Assay [8] has the same target. Put plainly: trans proline isomer, 10 °C.
Assay [9] has as its target B1. Put plainly: ITC; 25 °C; 50 mM HEPES pH 7.4, 100 mM NaCl, 0.5 mM TCEP; ~1:10 cell to syringe concentration ratio, cell around 15 µM for high-affinity fragments; one-set-of-sites model; which protein was in the cell is not stated. Conditions: both partners purified.
For assay [10], the target named is B1. The description is as above. Conditions: both partners purified. The source holds these as a separate data set.
The target in assay [11] is T3, Med25-ACID R568A. Described as above. The settings on record: both partners purified.
Assay [12] deals with B1. Put plainly: CEST NMR; 15N- and 13C-CEST; 500 µM 13C,15N-labeled DREB2A(234-276) or 1 mM DREB2A(234-276,P245A) with about 5% molar ratio of unlabeled Med25-ACID(532-680); pH 6.1, 20 mM phosphate, 100 mM NaCl; 25 °C and 10 °C; isomer Kd values estimated from the bound fractions and the overall ITC affinity. Conditions: both partners purified.
Assay [13] concerns the target T2, Med25-ACID_(532-680), activator …. Put plainly: stopped-flow, cis proline isomer, 10 °C.
Assay [14] shares this target. Kind of assay: stopped-flow, trans proline isomer, 10 °C.

What is called Kd is the concentration at which binding is half-saturated. Turning to DREB2A (fragment borders not printed), on RCD1-RST, the equilibrium dissociation constant (Kd) was 12 nM.

Regarding DREB2A195-276 [195–276], the Kd at Med25-ACID was 450 ± 30 nM; at Med25-ACID R568A [1] it was 3.1 µM.

Turning to B1, in the assay with DREB2A_(151-335), the dissociation constant Kd stood at 540 nM.

As usually defined, the koff is the rate constant with which the complex falls apart. High values mean fast dissociation, low ones slow dissociation. As usually defined, the kon is the second-order rate constant of association. A lower kon goes with slower complex formation. For the molecule B2, the off-rate constant (koff) in [2] was 54 s⁻¹. In addition, in [3], binding was put at a Kd of 1800 nM. The same molecule showed an on-rate (kon) in assay [4] of 2.9e+07 ± 1e+06 M⁻¹ s⁻¹.

As a reminder, the stoichiometry N is a count of units in the complex or per binding partner. With B3, the Kd was found to be 110 nM in assay [5]; 190 nM in [7]; 520 ± 20 nM in assay [9]; 510 nM in assay [10]; 3.1 ± 0.7 µM in the assay with Med25-ACID R568A [11]. Also, the figures for the off-rate constant (koff) in assay [6] and in assay [8] were 6 s⁻¹ and 24 s⁻¹, respectively. Moreover, the dH in assay [10] was -50.7 kJ/mol; with Med25-ACID R568A [11] it was -46 ± 4 kJ/mol. For the same molecule, the “stoichiometry N” value in [10] is 0.98; with Med25-ACID R568A [11] it was 0.9 ± 0.01. Further, the “KD of the cis-Pro245 isomer (estimated from CEST bound fractions and the ITC affinity)” value in assay [12] was 330 ± 20 nM. The “KD of the trans-Pro245 isomer (estimated from CEST bound fractions and the ITC affinity)” value in [12] was 640 ± 30 nM.

Take B4: the koff came out at 6 s⁻¹ in assay [13] and 24 s⁻¹ in assay [14].

Values taken from article PMC10796322, “Molecular switching in transcription through splicing and proline-isomerization regulates stress responses in plants” (Nature Communications, 2024).
